Assay: label from the status in PepcDB records

Sequence | protein production
MERQVLLSEPEEAAALYRGLSRQPALSAACLGPEVTTQYGGQYRTVHTEWTQRDLERMENIRFCRQYLVFHDGDSVVFAGPAGNSVETRGELLSRESPSGTMKAVLRKAGGTGPGEEKQFLEVWEKNRKLKSFNLSALEKHGPVYEDDCFGCLSWSHSETHLLYVAEKKRPKAESFFQTKALDVSASDDEIARLKKPDQAIKGDQFVFYEDWGENMVSKSIPVLCVLDVESGNISVLEGVPENVSPGQAFWAPGDAGVVFVGWWHEPFRLGIRFCTNRRSALYYVDLIGGKCELLSDDSLAVSSPRLSPDQCRIVYLQYPSLIPHHQCSQLCLYDWYTKVTSVVVDVVPRQLGENFSGIYCSLLPLGCWSADSQRVVFDSAQRSRQDLFAVDTQVGTVTSLTAGGSGGSWKLLTIDQDLMVAQFSTPSLPPTLKVGFLPSAGKEQSVLWVSLEEAEPIPDIHWGIRVLQPPPEQENVQYAGLDFEAILLQPGSPPDKTQVPMVVMPHGGPHSSFVTAWMLFPAMLCKMGFAVLLVNYRGSTGFGQDSILSLPGNVGHQDVKDVQFAVEQVLQEEHFDASHVALMGGSHGGFISCHLIGQYPETYRACVARNPVINIASMLGSTDIPDWCVVEAGFPFSSDCLPDLSVWAEMLDKSPIRYIPQVKTPLLLMLGQEDRRVPFKQGMEYYRALKTRNVPVRLLLYPKSTHALSEVEVESDSFMNAVLWLRTHLGS | failed
MPSDNQRLALLPVGRTGRLDRPSLLLTGGSGVLGRALIDELSPDFDLLCLRRDTPLRDPRVRELQGDLVAPRLGLSPLAWHELALEVDVVLHCAAETDWRTPPQDITRTNLRGADTVLDLAARADAPLYLVSTAFVANTPTEEDRRHFPGAAAYLDSMARAEQMTREAGVPGAIVRPSVVMGDSGSGRIAGRQGLTRMIGSMVLGQAPVLPGAPATRIDMVPRDYVSRAIGDLVRGGVADGEYWLTAGQEAMGLREFADVCADVAVRHGLPRPQRPRFIPVDAVHRLLLPMLAGTSLPASLRRRLEYYAELLLVFQRELPFDTSLGEPDCGTRPTRTDLRAALVRNAESWAGNRAGLLSPNRSAATAPMEVAS | failed
QLSSFETCAEKEESANTTESAIFEYHCEMSFDPNLLHNNGHNGYPNGTSAALRETGVIEKLLTSYGFIQCSERQARLFFHCSQYNGNLQDLKVGDDVEFEVSSDRRTGKPIAVKLVKIKQEILPEERMNGQVVCAVPHNLESKSPAAPGQSPTGSVCYERNGEVFYLTYTPEDVEGNVQLETGDKINFVIDNNKHTGAVSARNIMLLKKKQARCQGVVCAMKEAFGFIERGDVVKEIFFHYSEFKGDLETLQPGDDVEFTIKDRNGKEVATDVRLLPQGTVIFEDISIEHFEGTVTKVIPKVPSKNQNDPLPGRIKVDFVIPKELPFGDKDTKSKVTLLEGDHVRFNISTDRRDKLERATNIEVLSNTFQFTNEAREMGVIAAMRDGFGFIKCVDRDVRMFFHFSEILDGNQLHIADEVEFTVVPDMLSAQRNHAIRIKKLPKGTVSFHSHSDHRFLGTVEKEATFSNPKTTSPNKGKEKEAEDGIIAYDDCGVKLTIAFQAKDVEGSTSPQIGDKVEFSISDKQRPGQQVATCVRLLGRNSNSKRLLGYVATLKDNFGFIETANHDKEIFFHYSEFSGDVDSLELGDMVEYSLSKGKGNKVSAEKVNKTHSVNGITEEADPTIYSGKVIRPLRSVDPTQTEYQGMIEIVEEGDMKGEVYPFGIVGMANKGDCLQKGESVKFQLCVLGQNAQTMAYNITPLRRATVECVKDQFGFINYEVGDSKKLFFHVKEVQDGIELQAGDEVEFSVILNQRTGKCSACNVWRVCEGPKAVAAPRPDRLVNRLKNITLDDASAPRLMVLRQPRGPDNSMGFGAERKIRQAGVID | not failed
MFTFLMTVRTSRRVAFHSGKLPVVIGIVSFFAPLFSLSFLNLFTDNIDPHYMSLDKALAERTVIVITQSQILLPSTTYILLELKIINSELGRLALSASAINDMLGIFAMIVATTQATYIHVSHAIAYRDLVAVIIFFLIVFFVFKPMVQWIIDRTPEDKPVEDIYIHAVILTAFASAAYFVFFNMKYVLGPLIIGIIIPEGPPLGSALEAKFERLTMNVFLPISITFSAMRCDGLRILSQFTDIYFNIFLTLLILVIKLVACLTLCLYYKLPRSESLAVSLILSYKSFVEFVLYEAVLEEKFISQATYAFLILYSLLSAGIVPMVVRSMYDPKRKYVNYQKRDILHLEANSGLRILTCLHKPENVSETIAFLQLFSSPIHDFPIAVTVLHLVKLVGQINPIIVSHDKKLKRLHKNSYIHTANLAFRQFMQESLESVTVTTFTAFSHENLMHEDICTLALDRTTSMIVVPSGRKWTVDGMFESDDLAARQLNQSLLDRAPCSIGILVDRGQFSRKSYVTSKNRYNIDVGVLFIGGKDDREALSLVKRMKYNPRVRVTVIRLIFDHEIESEWDYILDNEGLKDLKSTESNEDILYTERIVTSVVEVVKAVQLLAEEYDLMVVGRDHDMTSQDLSGLTEWVELPELGVIGDLLAARDLNSKVSVLVVQQQQQQT | failed
MIEQELTYQDLRIPSSEIYEAMGYKDSIPDQMVIDETNTLLKRVIPLLRPRFAFFFMEGTLDIEKETLSVQSIHPPTVNPIQDTIPTRSPEQNTFSTQSKSTVFSVGKTIARQLRGSEAFVFFAATAGTEFEVFQHTLQQEEDMVKIYIADSLGSIIAEKTADCMEVALAEYIREKNWKHTNRYSPGYCGWHVSEQQKLFPLFPIAAPCGIRLTDSSLMVPIKSVSGVIGTGTNVRKLEYTCGLCTYENCYRKRKHR | not failed
MNKETVLYVVIALLVGILGTVLVVGVVNKQKPAPATAGIPAGGGSPVDYQQRIAEAEKVVANDPKNLQAWIQLGNDYFDTDQAQKAINAYGKALELDPTNANVLTDQGIMFKRVGWFDKAIANFEKAQQLDPKHLQSLYNLGVVYMSDLKQPAKAVKYWERYLELDPMGPNSQQIRTMLEEAKGMAQTPSPQGQLFRK | failed
MIKVLIFFGIILLGLCISPWIVGNTGYVYIAAGDYQLETSLAFGIIMLIVFYALFQVLEWLVITVINLLLRSRFIPHQWRRRSAKKHTLMGALAIAEEDWPAAERAMIKGADNGELPALNLLAAARAAQHQNKTAERDQYLARAETQPLAANAVATTRTRYLLKQGEFTLARAELDKLAPTSKSKAPVLKLALELYRAQQDWEALKLLLPILKKRQILDDIQLNSLSVETHSALLQTASLKGEDALEQCWQWLSRDERNQSEFLAIYTMGLCRFNRKEQAIKLLSKKLRSSPESALLEVIPQIVTAHDTDIRKQLLKHEITHENNADYQRCLALLYQQTRDMKEAKTCWQNVCRIAPTKDSWLSLARIQEQLGEQGHANQSYRQAVTL | failed
MQGHHAAARALRRQGRLGEAIARYRAALAATPGAAVLQAEMAECLFAAGQAEAAVKALGQAVRLDPDNATHRGNLAMLLARKGDLAGAIDHARAAVRLAPKDGALRLRLARLLIAAGHPREAEAEALDATRRLPREAASWIALAGARLLDQRPNDAEAPSARALALAPNDAEALSLRTDLLLSLGRLAEAEATARLALKRQPTSLAALVALSKAKTFRPDDPDWPALAALLPSLGERSAEEAVKLHFASAKALEDMGRDDEAFAHYQAGNSLKGRGLPDELPALSAMVDSLERWTPKLRPVGEGDPLPVFIVGMPRSGTTLVEQILDRHRAIHGAGEILLFGERVVANGLGGYSADPQGLDPERLAALGADYRDRLRGLAPRAGRIINKTPGNWLHLGLIAAALPGARIIWCRRDPVDCCLSCFRNLFGQGHAWTTDLGRAGRYYRLQERLTGHWQAVLGDERMTAVDYEALVADPEAEARRLVAHLGLEWDEACLDHTRGGRAVTTLSQVQVRQPITDASVGRGRRFQTHLGPLLTALDGR | failed
MSANDKQYISYNNVHQLCQVSAERIKNFKPDLIIAIGGGGFIPARILRTFLKEPGVPTIRIFAIILSLYEDLNSVGSEVEEVGVKVSRTQWIDYEQCKLDLVGKNVLIVDEVDDTRTTLHYALSELEKDAAEQAKAKGIDTEKSPEMKTNFGIFVLHDKQKPKKADLPAEMLNDKNRYFAAKTVPDKWYAYPWESTDIVFHTRMAIEQGNDIFIPEQEHKQ | failed
MTMEALQFLLAAPPGAYDPVARTIEDEPRPSQPPTSALALDIRGLRKSFGDNDVLRGIDLHIPAGQFVTIVGRSGCGKSTLLRLIAGLETPTAGHIVFGEDKLPGDVRVMFQEPRLLPWARVLANVEVGLGTERNSPDARARADAALIEVGLDDKRGEWPAVLSGGQKQRVALARALVSRPRVLAFDEPLGALDALTRIAMQRLLEQVWQAQGFTAILVTHDVAEAVALADRVLVIEDGRIAKDLPIDLPRPRQRGSAELAALEGEILRDLLKGAEDTFEL | failed
MARAVHRSGLVALGIATALMASCAFAAKDVVVAVGSNFTTLDPYDANDTLSQAVAKSFYQGLFGLDKEMKLKNVLAESYTVSDDGITYTVKLREGIKFQDGTDFNAAAVKANLDRASDPANHLKRYNLYKNIAKTEAIDPTTVKITLKQPFSAFINILAHPATAMISPAALEKYGKEIGFYPVGTGPYELDTWNQTDFVKVKKFAGYWQPGLPKLDSITWRPVADNNTRAAMLQTGEAQFAFPIPYEQATLLEKNKNIELMASPSIMQRYISMNVTQKPFDNPKVREALNYAINRPALVKVAFAGYATPATGVVPPSIAYAQSYKPWPYDPVKARELLKEAGYPNGFSTTLWSSHNHSTAQKVLQFTQQQLAQVGIKAQVTAMDAGQRAAEVEGKGQKESGVRMFYTGWSASTGEADWALSPLFASQNWPPTLFNTAFYSNKQVDDFLAQALKTNDPAEKTRLYKAAQDIIWQESPWIPLVVEKLVSAHSKNLTGFWIMPDTGFSFEDADLQ | not failed
MNNDISIAALIVTYNPDKRLIESLTKLEKLVDFVVIVDNNSNKSPVLDYISNNIFNDRYLIQLEDNLGIAYALNTGIKYILEKGHYDYILTLDQDTVPLIDDIKELIKRANSIYSNIGIIALISKMDPKIPEFTDVKFPMTSGNIVKSEIFKYIKYREEFFIDSVDFDFDYNVRMHGYRIIQYNYRAIDHNVGITKNGFPYESSERLYYIIRNSTVLFGENKITFRMYIFQAFYWITMGLIHWEILKTAKSSVKGFKDGVNKKLGKNNDI | failed
MKGLVELGEKAPDFTLPNQDFEPVNLYEVLKRGRPAVLIFFPAAFSPVCTKELCTFRDKMAQLEKANAEVLAISVDSPWCLKKFKDENRLAFNLLSDYNREVIKLYNVYHEDLKGLKMVAKRAVFIVKPDGTVAYKWVTDNPLNEPDYDEVVREANKIAGELVA | not failed
MDGSIRVSAKTVDDAITEALIQLGVTSDRLEYEVIEKGSSGFLGIGMKQAVIEARRKPEPVAEVKEETIPVEEVKPSVVKEQVSEPVQEKQEEKAEEEPARKKATELAEVSDEAIKAVEAFLNDTLKAMDMDVEIVSEVDSEGALSVEMKGSNMGILIGKRGQTLDALQYLANRVANKHQDGYVRVKLDTENYRARREETLRHLAKNIAFKVKRTRRAVSLEPMNPYERRIIHAALQSDPHVTTHSEGEEPYRKVVVTLKR | failed
SQPDHGRLSPPEAPDRPTISTASETSVYVTWIPRGNGGFPIQSFRVEYKKLKKVGDWILATSAIPPSRLSVEITGLEKGISYKFRVRALNMLGESEPSAPSRPYVVSG | not failed
MMTRNKEFPMQMQSVTPARLVTTGLAFGESPRWHGGRLWVCNWGTSEIIATDAHGNREIMLIVPAVLPYSIDWLQDGRLLVVSGREGLLLRQEVDGKLVTHADLRGLSKSPWNEIVVDGRGNIYVNGGGPAPAAGEYFGPGTVVLITADGAVRQVADDIAFANGMAVTPDNKTLILAESHGNRLTAFDIAADGSLSNRRAWADLDGYPDGICLDAEGAVWYADVPNKHCVRVREGGEVLQTVTVDRGCFACMLGGADRRTLFIVAAEWRGFEHMVGDARTGQVLSVDAPAPGVGWP | failed

From a protein production outcome set (Wang et al. 2014)
